Data: patent US12172986B2, “Splicing modulator antibody-drug conjugates and methods of use” (EISAI R&D MANAGEMENT CO., LTD., priority 2018, dated 2024)

Tested on: MOLP8 cells
Experiment: Cell viability, CD138-expressing MOLP8
Format: cell-based
Details: anti-CD138 ADC; for GI50: read-out: GI50 (nM) (ADC)
Protocol: HCC1954 (American Type Culture Collection (ATCC)) breast ductal carcinoma cells were plated at 2000 cells/well in flat bottom 96-well tissue culture plates (Corning) in a total volume of 90 μL tissue culture medium supplemented with 10% fetal bovine serum (ThermoFisher Scientific). Cells were treated with a 3-fold serial dilution of compound from 200 nM to 0.03 nM. Each concentration was tested in triplicate. At the time of treatment, a plate of untreated cells was evaluated using CellTiter-Glo®2.0 Luminescent Cell Viability Assay according to the manufacturer's recommendations (Promega; #G9241). CellTiter-Glo® 2.0 reagent was added to the medium, incubated, and assayed on an EnVision Multilabel Reader (PerkinElmer). Values represent time zero (TO). […] Percentage growth inhibition was calculated as: [(T144-T0)/(C-TO)]×100 for concentrations for which T144>/=TO or [(T144-T0)/T0]×100 for concentrations for which T144<TO. The dose response curve plots were generated using Prism 7 (Graphpad) and fit using nonlinear regression analysis and the log(inhibitor) versus response-variable slope (four parameters).

B1: AB205-ADL1-D14 (conjugate)
heavy: QVQLQQSGSELMMPGASVKISCKATGYTFSNYWIQRPGHGLEWIGEILPGTGRTIYNEKFKGKATFTADISSNTVQMQLSSLTSEDSAVYYCARRDYYGNFYYAMDYWGQGTSVTVSSAKTTPPSVYPLAPGSAAQTNSMVTLGCLVKGYFPEPVTVTWNSGSLSSGVHTFPAVLQSDLYTLSSSVTVPSSTWPSETVTCNVAHPASSTKVDKKIVPRDCGCKPCICTVPEVSSVFIFPPKPKDVLTITLTPKVTCVVVDISKDDPEVQFSWFVDDVEVHTAQTQPREEQFNSTFRSVSELPIMHQDWLNGKEFKCRVNSAAFPAPIEKTISKTKGRPKAPQVYTIPPPKEQMAKDKVSLTCMITDFFPEDITVEWQWNGQPAENYKNTQPIMDTDGSYFVYSKLNVQKSNWEAGNTFTCSVLHEGLHNHHTEKSLSHSPG
light: DIQMTQSTSSLSASLGDRVTISCSASQGINNYLNWYQQKPDGTVELLIYYTSTLQSGVPSRFSGSGSGTDYSLTISNLEPEDIGTYYCQQYSKLPRTFGGGTKLEIKRADAAPTVSIFPPSSEQLTSGGASVVCFLNNFYPKDINVKWKIDGSERQNGVLNSWTDQDSKDSTYSMSSTLTLTKDEYERHNSYTCEATHKTSTSPIVKSFNRNEC
With B1 the “LD50 (nM) (ADC)” value was over 400 nM, the “Rmin (%) (ADC)” value was −74.008% and the GI50 was under 0.061 nM.

B2: AB205-ADL5-D19 (conjugate)
heavy: QVQLQQSGSELMMPGASVKISCKATGYTFSNYWIQRPGHGLEWIGEILPGTGRTIYNEKFKGKATFTADISSNTVQMQLSSLTSEDSAVYYCARRDYYGNFYYAMDYWGQGTSVTVSSAKTTPPSVYPLAPGSAAQTNSMVTLGCLVKGYFPEPVTVTWNSGSLSSGVHTFPAVLQSDLYTLSSSVTVPSSTWPSETVTCNVAHPASSTKVDKKIVPRDCGCKPCICTVPEVSSVFIFPPKPKDVLTITLTPKVTCVVVDISKDDPEVQFSWFVDDVEVHTAQTQPREEQFNSTFRSVSELPIMHQDWLNGKEFKCRVNSAAFPAPIEKTISKTKGRPKAPQVYTIPPPKEQMAKDKVSLTCMITDFFPEDITVEWQWNGQPAENYKNTQPIMDTDGSYFVYSKLNVQKSNWEAGNTFTCSVLHEGLHNHHTEKSLSHSPG
light: DIQMTQSTSSLSASLGDRVTISCSASQGINNYLNWYQQKPDGTVELLIYYTSTLQSGVPSRFSGSGSGTDYSLTISNLEPEDIGTYYCQQYSKLPRTFGGGTKLEIKRADAAPTVSIFPPSSEQLTSGGASVVCFLNNFYPKDINVKWKIDGSERQNGVLNSWTDQDSKDSTYSMSSTLTLTKDEYERHNSYTCEATHKTSTSPIVKSFNRNEC
With B2 the “LD50 (nM) (ADC)” value was over 400 nM, the “Rmin (%) (ADC)” value was −46.23% and the GI50 was under 0.061 nM.

B3: AB205-ADL5-D25 (conjugate)
heavy: QVQLQQSGSELMMPGASVKISCKATGYTFSNYWIQRPGHGLEWIGEILPGTGRTIYNEKFKGKATFTADISSNTVQMQLSSLTSEDSAVYYCARRDYYGNFYYAMDYWGQGTSVTVSSAKTTPPSVYPLAPGSAAQTNSMVTLGCLVKGYFPEPVTVTWNSGSLSSGVHTFPAVLQSDLYTLSSSVTVPSSTWPSETVTCNVAHPASSTKVDKKIVPRDCGCKPCICTVPEVSSVFIFPPKPKDVLTITLTPKVTCVVVDISKDDPEVQFSWFVDDVEVHTAQTQPREEQFNSTFRSVSELPIMHQDWLNGKEFKCRVNSAAFPAPIEKTISKTKGRPKAPQVYTIPPPKEQMAKDKVSLTCMITDFFPEDITVEWQWNGQPAENYKNTQPIMDTDGSYFVYSKLNVQKSNWEAGNTFTCSVLHEGLHNHHTEKSLSHSPG
light: DIQMTQSTSSLSASLGDRVTISCSASQGINNYLNWYQQKPDGTVELLIYYTSTLQSGVPSRFSGSGSGTDYSLTISNLEPEDIGTYYCQQYSKLPRTFGGGTKLEIKRADAAPTVSIFPPSSEQLTSGGASVVCFLNNFYPKDINVKWKIDGSERQNGVLNSWTDQDSKDSTYSMSSTLTLTKDEYERHNSYTCEATHKTSTSPIVKSFNRNEC
For B3, the “LD50 (nM) (ADC)” value was 11.669 nM, the “Rmin (%) (ADC)” value was −76.736% and the GI50 was under 0.061 nM.

B4: AB205-ADL10-D1 (conjugate)
heavy: QVQLQQSGSELMMPGASVKISCKATGYTFSNYWIQRPGHGLEWIGEILPGTGRTIYNEKFKGKATFTADISSNTVQMQLSSLTSEDSAVYYCARRDYYGNFYYAMDYWGQGTSVTVSSAKTTPPSVYPLAPGSAAQTNSMVTLGCLVKGYFPEPVTVTWNSGSLSSGVHTFPAVLQSDLYTLSSSVTVPSSTWPSETVTCNVAHPASSTKVDKKIVPRDCGCKPCICTVPEVSSVFIFPPKPKDVLTITLTPKVTCVVVDISKDDPEVQFSWFVDDVEVHTAQTQPREEQFNSTFRSVSELPIMHQDWLNGKEFKCRVNSAAFPAPIEKTISKTKGRPKAPQVYTIPPPKEQMAKDKVSLTCMITDFFPEDITVEWQWNGQPAENYKNTQPIMDTDGSYFVYSKLNVQKSNWEAGNTFTCSVLHEGLHNHHTEKSLSHSPG
light: DIQMTQSTSSLSASLGDRVTISCSASQGINNYLNWYQQKPDGTVELLIYYTSTLQSGVPSRFSGSGSGTDYSLTISNLEPEDIGTYYCQQYSKLPRTFGGGTKLEIKRADAAPTVSIFPPSSEQLTSGGASVVCFLNNFYPKDINVKWKIDGSERQNGVLNSWTDQDSKDSTYSMSSTLTLTKDEYERHNSYTCEATHKTSTSPIVKSFNRNEC
B4 was tested, and the “LD50 (nM) (ADC)” value was over 400 nM, the “Rmin (%) (ADC)” value was −25.099% and the GI50 was 0.08 nM.

B5: AB205-ADL5-D15 (conjugate)
heavy: QVQLQQSGSELMMPGASVKISCKATGYTFSNYWIQRPGHGLEWIGEILPGTGRTIYNEKFKGKATFTADISSNTVQMQLSSLTSEDSAVYYCARRDYYGNFYYAMDYWGQGTSVTVSSAKTTPPSVYPLAPGSAAQTNSMVTLGCLVKGYFPEPVTVTWNSGSLSSGVHTFPAVLQSDLYTLSSSVTVPSSTWPSETVTCNVAHPASSTKVDKKIVPRDCGCKPCICTVPEVSSVFIFPPKPKDVLTITLTPKVTCVVVDISKDDPEVQFSWFVDDVEVHTAQTQPREEQFNSTFRSVSELPIMHQDWLNGKEFKCRVNSAAFPAPIEKTISKTKGRPKAPQVYTIPPPKEQMAKDKVSLTCMITDFFPEDITVEWQWNGQPAENYKNTQPIMDTDGSYFVYSKLNVQKSNWEAGNTFTCSVLHEGLHNHHTEKSLSHSPG
light: DIQMTQSTSSLSASLGDRVTISCSASQGINNYLNWYQQKPDGTVELLIYYTSTLQSGVPSRFSGSGSGTDYSLTISNLEPEDIGTYYCQQYSKLPRTFGGGTKLEIKRADAAPTVSIFPPSSEQLTSGGASVVCFLNNFYPKDINVKWKIDGSERQNGVLNSWTDQDSKDSTYSMSSTLTLTKDEYERHNSYTCEATHKTSTSPIVKSFNRNEC
With B5 the “LD50 (nM) (ADC)” value was over 400 nM, the “Rmin (%) (ADC)” value was 2.419% and the GI50 was 0.268 nM.

B6: AB205-ADL1-D4 (conjugate)
heavy: QVQLQQSGSELMMPGASVKISCKATGYTFSNYWIQRPGHGLEWIGEILPGTGRTIYNEKFKGKATFTADISSNTVQMQLSSLTSEDSAVYYCARRDYYGNFYYAMDYWGQGTSVTVSSAKTTPPSVYPLAPGSAAQTNSMVTLGCLVKGYFPEPVTVTWNSGSLSSGVHTFPAVLQSDLYTLSSSVTVPSSTWPSETVTCNVAHPASSTKVDKKIVPRDCGCKPCICTVPEVSSVFIFPPKPKDVLTITLTPKVTCVVVDISKDDPEVQFSWFVDDVEVHTAQTQPREEQFNSTFRSVSELPIMHQDWLNGKEFKCRVNSAAFPAPIEKTISKTKGRPKAPQVYTIPPPKEQMAKDKVSLTCMITDFFPEDITVEWQWNGQPAENYKNTQPIMDTDGSYFVYSKLNVQKSNWEAGNTFTCSVLHEGLHNHHTEKSLSHSPG
light: DIQMTQSTSSLSASLGDRVTISCSASQGINNYLNWYQQKPDGTVELLIYYTSTLQSGVPSRFSGSGSGTDYSLTISNLEPEDIGTYYCQQYSKLPRTFGGGTKLEIKRADAAPTVSIFPPSSEQLTSGGASVVCFLNNFYPKDINVKWKIDGSERQNGVLNSWTDQDSKDSTYSMSSTLTLTKDEYERHNSYTCEATHKTSTSPIVKSFNRNEC
For B6, the “LD50 (nM) (ADC)” value was 0.535 nM, the “Rmin (%) (ADC)” value was −99.306% and the GI50 was under 0.061 nM.

B7: AB205-ADL1-D1 (conjugate)
heavy: QVQLQQSGSELMMPGASVKISCKATGYTFSNYWIQRPGHGLEWIGEILPGTGRTIYNEKFKGKATFTADISSNTVQMQLSSLTSEDSAVYYCARRDYYGNFYYAMDYWGQGTSVTVSSAKTTPPSVYPLAPGSAAQTNSMVTLGCLVKGYFPEPVTVTWNSGSLSSGVHTFPAVLQSDLYTLSSSVTVPSSTWPSETVTCNVAHPASSTKVDKKIVPRDCGCKPCICTVPEVSSVFIFPPKPKDVLTITLTPKVTCVVVDISKDDPEVQFSWFVDDVEVHTAQTQPREEQFNSTFRSVSELPIMHQDWLNGKEFKCRVNSAAFPAPIEKTISKTKGRPKAPQVYTIPPPKEQMAKDKVSLTCMITDFFPEDITVEWQWNGQPAENYKNTQPIMDTDGSYFVYSKLNVQKSNWEAGNTFTCSVLHEGLHNHHTEKSLSHSPG
light: DIQMTQSTSSLSASLGDRVTISCSASQGINNYLNWYQQKPDGTVELLIYYTSTLQSGVPSRFSGSGSGTDYSLTISNLEPEDIGTYYCQQYSKLPRTFGGGTKLEIKRADAAPTVSIFPPSSEQLTSGGASVVCFLNNFYPKDINVKWKIDGSERQNGVLNSWTDQDSKDSTYSMSSTLTLTKDEYERHNSYTCEATHKTSTSPIVKSFNRNEC
B7 was tested, and the “LD50 (nM) (ADC)” value was 0.656 nM, the “Rmin (%) (ADC)” value was −100.099% and the GI50 was over 0.061 nM.
